According to US20240092890A1 (JUNTENDO EDUCATIONAL FOUNDATION, published 2024):

T1: Ins 5 type mutant CALR protein on UT-7/TPO CALR Ins 5 cells (UniProt P27797 18-417)
T1 sequence (looked up): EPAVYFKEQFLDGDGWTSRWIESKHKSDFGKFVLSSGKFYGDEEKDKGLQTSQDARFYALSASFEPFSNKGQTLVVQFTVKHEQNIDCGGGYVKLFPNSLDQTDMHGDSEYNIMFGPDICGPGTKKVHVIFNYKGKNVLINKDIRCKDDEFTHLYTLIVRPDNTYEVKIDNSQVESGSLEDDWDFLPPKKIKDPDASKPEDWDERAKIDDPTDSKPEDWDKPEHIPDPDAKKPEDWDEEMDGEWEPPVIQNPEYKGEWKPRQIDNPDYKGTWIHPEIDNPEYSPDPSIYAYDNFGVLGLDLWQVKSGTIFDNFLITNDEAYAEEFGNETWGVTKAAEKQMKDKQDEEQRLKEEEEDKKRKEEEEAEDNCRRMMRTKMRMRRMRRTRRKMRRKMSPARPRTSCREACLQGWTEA

T2: protein having an Fc region and a His-tag added to the N-terminus of SEQ ID NO: 1
T2 construct: also called mutant CALR protein (antigen of the BLItz measurement); not shown: Fc region and His-tag at the N-terminus
T2 chain: RRMMRTKMRMRRM

B1: Antibody 11 (bispecific antibody)
chain: QVQLVQSGGGVVQPGRSLRLSCKASGYTFTRYTMHWVRQAPGKGLEWIGYINPSRGYTNYNQKVKDRFTISRDNSKNTAFLQMDSLRPEDTGVYFCARYYDDHYSLDYWGQGTPVTVSSGGGGSGGGGSGGGGSDIQMTQSPSSLSASVGDRVTITCSASSSVSYMNWYQQTPGKAPKRWIYDTSKLASGVPSRFSGSGSGTDYTFTISSLQPEDIATYYCQQWSSNPFTFGQGTKLQITRGGGGSQVQLQQSGAELVKPGSSVKISCKASGYTFTRNFIHWIKQQPGNGLEWIGWIFPGDGDTEYNQKFNGKATLTADKSSSTAYMQLSSLTSEDSAVYFCARGNYNYEYFDYWGQGVMVTVSSGGGGSGGGGSGGGGSDIQMTQSPASLSASLGETVSIECLASEDIYSYLAWYQQKPGKSPQLLIFAANRLQDGVPSRFSGSGSGTQFSLKISGMQPEDEGDYFCLQGSKFPYTFGPGTKLELNHHHHHH
B2: Antibody 16 (bispecific antibody)
heavy: QVQLQQSGAELVKPGSSVKISCKASGYTFTRNFIHWIKQQPGNGLEWIGWIFPGDGDTEYNQKFNGKATLTADKSSSTAYMQLSSLTSEDSAVYFCARGNYNYEYFDYWGQGVMVTVSSASTKGPSVFPLAPSSKSTSGGTAALGCLVKDYFPEPVTVSWNSGALTSGVHTFPAVLQSSGLYSLSSVVTVPSSSLGTQTYICNVNHKPSNTKVDKRVEPKSCGGGGSQVQLVQSGGGVVQPGRSLRLSCKASGYTFTRYTMHWVRQAPGKGLEWIGYINPSRGYTNYNQKVKDRFTISRDNSKNTAFLQMDSLRPEDTGVYFCARYYDDHYSLDYWGQGTPVTVSSGGGGSGGGGSGGGGSDIQMTQSPSSLSASVGDRVTITCSASSSVSYMNWYQQTPGKAPKRWIYDTSKLASGVPSRFSGSGSGTDYTFTISSLQPEDIATYYCQQWSSNPFTFGQGTKLQITRHHHHHH
light: DIQMTQSPASLSASLGETVSIECLASEDIYSYLAWYQQKPGKSPQLLIFAANRLQDGVPSRFSGSGSGTQFSLKISGMQPEDEGDYFCLQGSKFPYTFGPGTKLELNRTVAAPSVFIFPPSDEQLKSGTASVVCLLNNFYPREAKVQWKVDNALQSGNSQESVTEQDSKDSTYSLSSTLTLSKADYEKHKVYACEVTHQGLSSPVTKSFNRGEC
notes: B3 Fab with hOKT3 scFv fused to the Fab heavy chain C-terminus
B3: Antibody 20 (bispecific antibody)
heavy: QVQLVQSGGGVVQPGRSLRLSCKASGYTFTRYTMHWVRQAPGKGLEWIGYINPSRGYTNYNQKVKDRFTISRDNSKNTAFLQMDSLRPEDTGVYFCARYYDDHYSLDYWGQGTPVTVSSGGGGSGGGGSGGGGSDIQMTQSPSSLSASVGDRVTITCSASSSVSYMNWYQQTPGKAPKRWIYDTSKLASGVPSRFSGSGSGTDYTFTISSLQPEDIATYYCQQWSSNPFTFGQGTKLQITRGGGGSQVQLQQSGAELVKPGSSVKISCKASGYTFTRNFIHWIKQQPGNGLEWIGWIFPGDGDTEYNQKFNGKATLTADKSSSTAYMQLSSLTSEDSAVYFCARGNYNYEYFDYWGQGVMVTVSSASTKGPSVFPLAPSSKSTSGGTAALGCLVKDYFPEPVTVSWNSGALTSGVHTFPAVLQSSGLYSLSSVVTVPSSSLGTQTYICNVNHKPSNTKVDKRVEPKSCHHHHHH
light: B2 light
notes: hOKT3 scFv fused to the N-terminus of the B3 Fab heavy chain
B4: Antibody 18 (bispecific antibody)
heavy: QVQLQQSGAELVKPGSSVKISCKASGYTFTRNFIHWIKQQPGNGLEWIGWIFPGDGDTEYNQKFNGKATLTADKSSSTAYMQLSSLTSEDSAVYFCARGNYNYEYFDYWGQGVMVTVSSASTKGPSVFPLAPSSKSTSGGTAALGCLVKDYFPEPVTVSWNSGALTSGVHTFPAVLQSSGLYSLSSVVTVPSSSLGTQTYICNVNHKPSNTKVDKRVEPKSCGGGGSQVQLVQSGGGVVQPGRSLRLSCKASGYTFTRYTMHWVRQAPGKGLEWIGYINPSRGYTNYNQKVKDRFTISRDNSKNTAFLQMDSLRPEDTGVYFCARYYDDHYSLDYWGQGTPVTVSSGGGGSGGGGSGGGGSDIQMTQSPSSLSASVGDRVTITCSASSSVSYMNWYQQTPGKAPKRWIYDTSKLASGVPSRFSGSGSGTDYTFTISSLQPEDIATYYCQQWSSNPFTFGQGTKLQITRAAAGGGQPREPQVYTLPPSREEMTKNQVSLTCLVKGFYPSDIAVEWESNGQPENNYKTTPPVLDSDGSFFLYSKLTVDKSRWQQGNVFSCSVMHEALHNHYTQKSLSLSPGK
light: B2 light
notes: B3 Fab heavy chain, hOKT3 scFv and CH3 domain in one polypeptide, with the B3 light chain
B5: Antibody 17 (bispecific antibody)
heavy: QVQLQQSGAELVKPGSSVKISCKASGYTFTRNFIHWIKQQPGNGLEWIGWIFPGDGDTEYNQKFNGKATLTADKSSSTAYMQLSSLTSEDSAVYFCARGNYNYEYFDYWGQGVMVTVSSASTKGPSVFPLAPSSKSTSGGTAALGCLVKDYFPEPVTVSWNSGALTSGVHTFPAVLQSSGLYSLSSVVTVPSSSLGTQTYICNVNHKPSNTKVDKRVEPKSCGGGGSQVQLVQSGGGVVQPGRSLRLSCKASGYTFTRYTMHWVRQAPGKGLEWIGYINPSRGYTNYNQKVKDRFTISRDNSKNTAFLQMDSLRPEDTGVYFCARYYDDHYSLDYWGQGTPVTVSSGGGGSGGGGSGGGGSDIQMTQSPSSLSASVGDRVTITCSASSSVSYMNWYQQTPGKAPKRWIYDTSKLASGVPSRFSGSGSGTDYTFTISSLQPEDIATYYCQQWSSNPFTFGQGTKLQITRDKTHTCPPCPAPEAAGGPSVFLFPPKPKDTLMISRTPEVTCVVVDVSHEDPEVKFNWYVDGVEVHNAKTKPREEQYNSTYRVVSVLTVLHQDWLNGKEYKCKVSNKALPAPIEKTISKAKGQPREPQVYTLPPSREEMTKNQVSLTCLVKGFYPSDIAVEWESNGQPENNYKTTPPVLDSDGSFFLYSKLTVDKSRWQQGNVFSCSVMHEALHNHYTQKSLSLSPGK
light: B2 light
notes: B3 Fab heavy chain, hOKT3 scFv and Fc in one polypeptide, with the B3 light chain
B6: Antibody 19 (bispecific antibody)
heavy: QVQLQQSGAELVKPGSSVKISCKASGYTFTRNFIHWIKQQPGNGLEWIGWIFPGDGDTEYNQKFNGKATLTADKSSSTAYMQLSSLTSEDSAVYFCARGNYNYEYFDYWGQGVMVTVSSASTKGPSVFPLAPSSKSTSGGTAALGCLVKDYFPEPVTVSWNSGALTSGVHTFPAVLQSSGLYSLSSVVTVPSSSLGTQTYICNVNHKPSNTKVDKRVEPKSCGGGGSQVQLVQSGGGVVQPGRSLRLSCKASGYTFTRYTMHWVRQAPGKGLEWIGYINPSRGYTNYNQKVKDRFTISRDNSKNTAFLQMDSLRPEDTGVYFCARYYDDHYSLDYWGQGTPVTVSSGGGGSGGGGSGGGGSDIQMTQSPSSLSASVGDRVTITCSASSSVSYMNWYQQTPGKAPKRWIYDTSKLASGVPSRFSGSGSGTDYTFTISSLQPEDIATYYCQQWSSNPFTFGQGTKLQITRGGGGSQVQLQQSGAELVKPGSSVKISCKASGYTFTRNFIHWIKQQPGNGLEWIGWIFPGDGDTEYNQKFNGKATLTADKSSSTAYMQLSSLTSEDSAVYFCARGNYNYEYFDYWGQGVMVTVSSASTKGPSVFPLAPSSKSTSGGTAALGCLVKDYFPEPVTVSWNSGALTSGVHTFPAVLQSSGLYSLSSVVTVPSSSLGTQTYICNVNHKPSNTKVDKRVEPKSCHHHHHH
light: B2 light
notes: B3 Fab heavy chain, hOKT3 scFv and a second B3 Fab heavy chain in one polypeptide, with the B3 light chain
B7: Antibody 22 (bispecific antibody)
heavy: QVQLVQSGGGVVQPGRSLRLSCKASGYTFTRYTMHWVRQAPGKGLEWIGYINPSRGYTNYNQKVKDRFTISRDNSKNTAFLQMDSLRPEDTGVYFCARYYDDHYSLDYWGQGTPVTVSSGGGGSGGGGSGGGGSDIQMTQSPSSLSASVGDRVTITCSASSSVSYMNWYQQTPGKAPKRWIYDTSKLASGVPSRFSGSGSGTDYTFTISSLQPEDIATYYCQQWSSNPFTFGQGTKLQITRGGGGSQVQLQQSGAELVKPGSSVKISCKASGYTFTRNFIHWIKQQPGNGLEWIGWIFPGDGDTEYNQKFNGKATLTADKSSSTAYMQLSSLTSEDSAVYFCARGNYNYEYFDYWGQGVMVTVSSASTKGPSVFPLAPSSKSTSGGTAALGCLVKDYFPEPVTVSWNSGALTSGVHTFPAVLQSSGLYSLSSVVTVPSSSLGTQTYICNVNHKPSNTKVDKRVEPKSCAAAGGGQPREPQVYTLPPSREEMTKNQVSLTCLVKGFYPSDIAVEWESNGQPENNYKTTPPVLDSDGSFFLYSKLTVDKSRWQQGNVFSCSVMHEALHNHYTQKSLSLSPGK
light: B2 light
notes: hOKT3 scFv, B3 Fab heavy chain and CH3 domain in one polypeptide, with the B3 light chain
B8: Antibody 25 (bispecific antibody)
heavy: QVQLQQSGAELVKPGSSVKISCKASGYTFTRNFIHWIKQQPGNGLEWIGWIFPGDGDTEYNQKFNGKATLTADKSSSTAYMQLSSLTSEDSAVYFCARGNYNYEYFDYWGQGVMVTVSSASTKGPSVFPLAPSSKSTSGGTAALGCLVKDYFPEPVTVSWNSGALTSGVHTFPAVLQSSGLYSLSSVVTVPSSSLGTQTYICNVNHKPSNTKVDKRVEPKSCAAAGGGQPREPQVYTLPPSREEMTKNQVSLTCLVKGFYPSDIAVEWESNGQPENNYKTTPPVLDSDGSFFLYSKLTVDKSRWQQGNVFSCSVMHEALHNHYTQKSLSLSPGK
light: QVQLVQSGGGVVQPGRSLRLSCKASGYTFTRYTMHWVRQAPGKGLEWIGYINPSRGYTNYNQKVKDRFTISRDNSKNTAFLQMDSLRPEDTGVYFCARYYDDHYSLDYWGQGTPVTVSSGGGGSGGGGSGGGGSDIQMTQSPSSLSASVGDRVTITCSASSSVSYMNWYQQTPGKAPKRWIYDTSKLASGVPSRFSGSGSGTDYTFTISSLQPEDIATYYCQQWSSNPFTFGQGTKLQITRGGGGSDIQMTQSPASLSASLGETVSIECLASEDIYSYLAWYQQKPGKSPQLLIFAANRLQDGVPSRFSGSGSGTQFSLKISGMQPEDEGDYFCLQGSKFPYTFGPGTKLELNRTVAAPSVFIFPPSDEQLKSGTASVVCLLNNFYPREAKVQWKVDNALQSGNSQESVTEQDSKDSTYSLSSTLTLSKADYEKHKVYACEVTHQGLSSPVTKSFNRGEC
B9: Antibody 85 (bispecific antibody)
chain 1: not shown
chain 2: DIQMTQSPSSLSASVGDRVTITCLASEDIYSYLAWYQQKPGKAPKLLIFAANRLQSGVPSRFSGSGSGTDFTLTISSLQPEDFATYYCLQGSKFPYTFGPGTKVDIKRTVAAPSVFIFPPSDEQLKSGTASVVCLLNNFYPREAKVQWKVDNALQSGNSQESVTEQDSKDSTYSLSSTLTLSKADYEKHKVYACEVTHQGLSSPVTKSFNRGEC

Molecular target: T1, Ins 5 type mutant CALR protein on …
Test: cell-based or functional assay

Row | Binder | EC50 of cytotoxic activity (calcein release, T-LAK effector cells) [pM]
1 | B1 | 1260
2 | B2 | 334
3 | B3 | 1460
4 | B4 | 81
5 | B5 | 46
6 | B6 | 3710
7 | B7 | 101
8 | B8 | 56

Molecular target: T2, protein having an Fc region and a …
Test: BLItz biolayer interferometry, Fc/His-SEQ ID NO: 1 protein on the biosensor
Description: As another method, measurements were performed using the molecular interaction analysis system BLItz (ForteBio), which applies biolayer interferometry […]. Specifically, a protein having an Fc region and a His-tag added to the N-terminus of SEQ ID NO: 1 was immobilized at a concentration of 0.1 mg/mL using the Anti-Penta-HIS or ProteinA biosensor (ForteBio). Subsequently, the antibodies 1 to 114 made were prepared at a concentration of 500, 100, and 50 nM and reacted to acquire the dissociation constant.

Row | Kd [nM] | Binder
9 | 2.83 | B2
10 | 12.4 | B3
11 | < 0.001 | B4
12 | < 0.001 | B5
13 | 0.728 | B6
14 | < 0.001 | B7
15 | < 0.001 | B9

Molecular target: T1, Ins 5 type mutant CALR protein on …
Test: cell-based or functional assay
Remark: another data set of the same source

Row | Binder | EC50 of cytotoxic activity (pM)
16 | B9 | 389
